Measurements taken from patent US20210284734A1 (SYMPHOGEN A S, published 2021).

B1: 13112.15380 Fab (Fab, V domains shown)
VH: EVQLLESGGGLVQPGGSLRLSCAASGFTFSSYNMFWVRQAPGKGLEFVAEISGSNTGSRTWYAPAVKGRATISRDNSKNTLYLQMNSLRAEDTAVYYCAKSIYGGYCAGGYSCGVGLIDAWGQGTLVTVSS
VL: SYELTQDPAVSVALGQTVRITCSGGSSDYYGWFQQKPGQAPVTVIYYNNKRPSDIPDRFSGSSSGNTASLTITGAQAEDEADYYCGNADSSVGVFGSGTKVTVL
B2: 12865.17150 Fab (Fab, V domains shown)
VH: EVQLLESGGGLVQPGGSLRLSCAASGFDFSDHGMQWVRQAPGKGLEYVGVIDTTGRYTYYAPAVKGRATISRDNSKNTLYLQMNSLRAEDTAVYYCAKTTCVGGYLCNTVGSIDAWGQGTLVTVSS
VL: SYELTQDPAVSVALGQTVRITCSGGGSSSYYGWYQQKPGQAPVTVIYDDTNRPSGIPDRFSGSSSGNTASLTITGAQAEDEADYYCGGYEGSSHAGIFGSGTKVTVL
notes: monomeric Fab fragment
B3: 12819.17149 Fab (Fab, V domains shown)
VH: EVQLLESGGGLVQPGGSLRLSCAASGFTFTRYDMVWVRQAPGKGLEWVAGIGDSNKMTRYAPAVKGRATISRDNSKNTLYLQMNSLRAEDTAVYYCAKGSCIACWDEAGRIDAWGQGTLVTVSS
VL: SYELTQDPAVSVALGQTVRITCSGGGSYDGSSYYGWYQQKPGQAPVTVIYNNNNRPSDIPDRFSGSSSGNTASLTITGAQAEDEADYYCGSYDRPETNSDYVGMFGSGTKVTVL
notes: monomeric Fab fragment

Columns and labels:
Experiment in all cases: SPR, Fab on captured PD-1-Fc;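 note: Alanine-scan PD-1 Fc fusions expressed transiently in ExpiCHO, captured on anti-human IgG Fc surface in IBIS MX96, anti-PD-1 Fab association 15 min, dissociation 30 min, Langmuir 1:1 fit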
human PD-1 ECD-Fc A132G = target: T1, human PD-1 ECD-Fc A132G (human, UniProt Q15116 21-170)
T1 construct: not shown: human IgG1 Fc, residues P101-K330

human PD-1 ECD-Fc A154G = target: T2, human PD-1 ECD-Fc A154G (human, UniProt Q15116 21-170)
T2 construct: not shown: human IgG1 Fc, residues P101-K330

human PD-1 ECD-Fc D29A = target: T3, human PD-1 ECD-Fc D29A (human, UniProt Q15116 21-170)
T3 construct: not shown: human IgG1 Fc, residues P101-K330

human PD-1 ECD-Fc S157R = target: T4, human PD-1 ECD-Fc S157R (human, UniProt Q15116 21-170)
T4 construct: also called Rat mutation S157R; not shown: human IgG1 Fc, residues P101-K330

human PD-1 ECD-Fc P160A = target: T5, human PD-1 ECD-Fc P160A (human, UniProt Q15116 21-170)
T5 construct: not shown: human IgG1 Fc, residues P101-K330

human PD-1 ECD-Fc P89A = target: T6, human PD-1 ECD-Fc P89A (human, UniProt Q15116 21-170)
T6 construct: not shown: human IgG1 Fc, residues P101-K330

human PD-1 ECD-Fc N49A = target: T7, human PD-1 ECD-Fc N49A (human, UniProt Q15116 21-170)
T7 construct: not shown: human IgG1 Fc, residues P101-K330

human PD-1 ECD-Fc E84A = target: T8, human PD-1 ECD-Fc E84A (human, UniProt Q15116 21-170)
T8 construct: not shown: human IgG1 Fc, residues P101-K330

human PD-1 ECD-Fc Q133A = target: T9, human PD-1 ECD-Fc Q133A (human, UniProt Q15116 21-170)
T9 construct: not shown: human IgG1 Fc, residues P101-K330

human PD-1 ECD-Fc P101A = target: T10, human PD-1 ECD-Fc P101A (human, UniProt Q15116 21-170)
T10 construct: not shown: human IgG1 Fc, residues P101-K330

human PD-1 ECD-Fc P31A = target: T11, human PD-1 ECD-Fc P31A (human, UniProt Q15116 21-170)
T11 construct: not shown: human IgG1 Fc, residues P101-K330

human PD-1 ECD-Fc K131A = target: T12, human PD-1 ECD-Fc K131A (human, UniProt Q15116 21-170)
T12 construct: not shown: human IgG1 Fc, residues P101-K330

human PD-1 ECD-Fc Q75A = target: T13, human PD-1 ECD-Fc Q75A (human, UniProt Q15116 21-170)
T13 construct: not shown: human IgG1 Fc, residues P101-K330

human PD-1 ECD-Fc G119A = target: T14, human PD-1 ECD-Fc G119A (human, UniProt Q15116 21-170)
T14 construct: not shown: human IgG1 Fc, residues P101-K330

human PD-1 ECD-Fc G47A = target: T15, human PD-1 ECD-Fc G47A (human, UniProt Q15116 21-170)
T15 construct: not shown: human IgG1 Fc, residues P101-K330

human PD-1 ECD-Fc L128A = target: T16, human PD-1 ECD-Fc L128A (human, UniProt Q15116 21-170)
T16 construct: not shown: human IgG1 Fc, residues P101-K330

human PD-1 ECD-Fc A149G = target: T17, human PD-1 ECD-Fc A149G (human, UniProt Q15116 21-170)
T17 construct: not shown: human IgG1 Fc, residues P101-K330

human PD-1 ECD-Fc V64K = target: T18, human PD-1 ECD-Fc V64K (human, UniProt Q15116 21-170)
T18 construct: also called Rat mutation V64K; not shown: human IgG1 Fc, residues P101-K330

human PD-1 ECD-Fc S57A = target: T19, human PD-1 ECD-Fc S57A (human, UniProt Q15116 21-170)
T19 construct: not shown: human IgG1 Fc, residues P101-K330

human PD-1 ECD-Fc S71A = target: T20, human PD-1 ECD-Fc S71A (human, UniProt Q15116 21-170)
T20 construct: not shown: human IgG1 Fc, residues P101-K330

human PD-1 ECD-Fc K135A = target: T21, human PD-1 ECD-Fc K135A (human, UniProt Q15116 21-170)
T21 construct: not shown: human IgG1 Fc, residues P101-K330

human PD-1 ECD-Fc F56A = target: T22, human PD-1 ECD-Fc F56A (human, UniProt Q15116 21-170)
T22 construct: not shown: human IgG1 Fc, residues P101-K330

human PD-1 ECD-Fc A80G = target: T23, human PD-1 ECD-Fc A80G (human, UniProt Q15116 21-170)
T23 construct: not shown: human IgG1 Fc, residues P101-K330

human PD-1 ECD-Fc G22A = target: T24, human PD-1 ECD-Fc G22A (human, UniProt Q15116 21-170)
T24 construct: not shown: human IgG1 Fc, residues P101-K330

human PD-1 ECD-Fc S159A = target: T25, human PD-1 ECD-Fc S159A (human, UniProt Q15116 21-170)
T25 construct: not shown: human IgG1 Fc, residues P101-K330

human PD-1 ECD-Fc E61A = target: T26, human PD-1 ECD-Fc E61A (human, UniProt Q15116 21-170)
T26 construct: not shown: human IgG1 Fc, residues P101-K330

human PD-1 ECD-Fc V44A = target: T27, human PD-1 ECD-Fc V44A (human, UniProt Q15116 21-170)
T27 construct: not shown: human IgG1 Fc, residues P101-K330

human PD-1 ECD-Fc S73A = target: T28, human PD-1 ECD-Fc S73A (human, UniProt Q15116 21-170)
T28 construct: not shown: human IgG1 Fc, residues P101-K330

human PD-1 ECD-Fc P158A = target: T29, human PD-1 ECD-Fc P158A (human, UniProt Q15116 21-170)
T29 construct: not shown: human IgG1 Fc, residues P101-K330

human PD-1 ECD-Fc Q88A = target: T30, human PD-1 ECD-Fc Q88A (human, UniProt Q15116 21-170)
T30 construct: not shown: human IgG1 Fc, residues P101-K330

human PD-1 ECD-Fc P156A = target: T31, human PD-1 ECD-Fc P156A (human, UniProt Q15116 21-170)
T31 construct: not shown: human IgG1 Fc, residues P101-K330

human PD-1 ECD-Fc G124A = target: T32, human PD-1 ECD-Fc G124A (human, UniProt Q15116 21-170)
T32 construct: not shown: human IgG1 Fc, residues P101-K330
T32 sequence (Q15116 21-170 G124A): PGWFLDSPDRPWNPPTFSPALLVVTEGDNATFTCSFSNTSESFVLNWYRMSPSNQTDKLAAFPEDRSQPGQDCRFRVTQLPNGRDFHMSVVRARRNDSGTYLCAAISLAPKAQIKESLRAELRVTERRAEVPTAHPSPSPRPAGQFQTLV

T28 sequence (Q15116 21-170 S73A): as the sequence (Q15116 21-170 G124A) above, with S53A, A104G counted along it
T27 sequence (Q15116 21-170 V44A): as the sequence (Q15116 21-170 G124A) above, with V24A, A104G counted along it
T21 sequence (Q15116 21-170 K135A): as the sequence (Q15116 21-170 G124A) above, with A104G, K115A counted along it
T7 sequence (Q15116 21-170 N49A): as the sequence (Q15116 21-170 G124A) above, with N29A, A104G counted along it
T3 sequence (Q15116 21-170 D29A): as the sequence (Q15116 21-170 G124A) above, with D9A, A104G counted along it
T9 sequence (Q15116 21-170 Q133A): as the sequence (Q15116 21-170 G124A) above, with A104G, Q113A counted along it
T17 sequence (Q15116 21-170 A149G): as the sequence (Q15116 21-170 G124A) above, with A104G, A129G counted along it
T1 sequence (Q15116 21-170 A132G): as the sequence (Q15116 21-170 G124A) above, with A104G, A112G counted along it
T23 sequence (Q15116 21-170 A80G): as the sequence (Q15116 21-170 G124A) above, with A60G, A104G counted along it
T20 sequence (Q15116 21-170 S71A): as the sequence (Q15116 21-170 G124A) above, with S51A, A104G counted along it
T26 sequence (Q15116 21-170 E61A): as the sequence (Q15116 21-170 G124A) above, with E41A, A104G counted along it
T31 sequence (Q15116 21-170 P156A): as the sequence (Q15116 21-170 G124A) above, with A104G, P136A counted along it
T22 sequence (Q15116 21-170 F56A): as the sequence (Q15116 21-170 G124A) above, with F36A, A104G counted along it
T19 sequence (Q15116 21-170 S57A): as the sequence (Q15116 21-170 G124A) above, with S37A, A104G counted along it
T30 sequence (Q15116 21-170 Q88A): as the sequence (Q15116 21-170 G124A) above, with Q68A, A104G counted along it
T6 sequence (Q15116 21-170 P89A): as the sequence (Q15116 21-170 G124A) above, with P69A, A104G counted along it
T14 sequence (Q15116 21-170 G119A): as the sequence (Q15116 21-170 G124A) above, with G99A, A104G counted along it
T12 sequence (Q15116 21-170 K131A): as the sequence (Q15116 21-170 G124A) above, with A104G, K111A counted along it
T4 sequence (Q15116 21-170 S157R): as the sequence (Q15116 21-170 G124A) above, with A104G, S137R counted along it
T25 sequence (Q15116 21-170 S159A): as the sequence (Q15116 21-170 G124A) above, with A104G, S139A counted along it
T29 sequence (Q15116 21-170 P158A): as the sequence (Q15116 21-170 G124A) above, with A104G, P138A counted along it
T2 sequence (Q15116 21-170 A154G): as the sequence (Q15116 21-170 G124A) above, with A104G, A134G counted along it
T13 sequence (Q15116 21-170 Q75A): as the sequence (Q15116 21-170 G124A) above, with Q55A, A104G counted along it
T11 sequence (Q15116 21-170 P31A): as the sequence (Q15116 21-170 G124A) above, with P11A, A104G counted along it
T24 sequence (Q15116 21-170 G22A): as the sequence (Q15116 21-170 G124A) above, with G2A, A104G counted along it

| Binder | KD mutant/KD wild-type (human PD-1 ECD-Fc A132G) | KD mutant/KD wild-type (human PD-1 ECD-Fc A154G) | KD mutant/KD wild-type (human PD-1 ECD-Fc D29A) | KD mutant/KD wild-type (human PD-1 ECD-Fc S157R) | KD mutant/KD wild-type (human PD-1 ECD-Fc P160A) | KD mutant/KD wild-type (human PD-1 ECD-Fc P89A) | KD mutant/KD wild-type (human PD-1 ECD-Fc N49A) | KD mutant/KD wild-type (human PD-1 ECD-Fc E84A) | KD mutant/KD wild-type (human PD-1 ECD-Fc Q133A) | KD mutant/KD wild-type (human PD-1 ECD-Fc P101A) | KD mutant/KD wild-type (human PD-1 ECD-Fc P31A) | KD mutant/KD wild-type (human PD-1 ECD-Fc Q75A) | KD mutant/KD wild-type (human PD-1 ECD-Fc G119A) | KD mutant/KD wild-type (human PD-1 ECD-Fc G47A) | KD mutant/KD wild-type (human PD-1 ECD-Fc L128A) | KD mutant/KD wild-type (human PD-1 ECD-Fc A149G) | KD mutant/KD wild-type (human PD-1 ECD-Fc V64K) | KD mutant/KD wild-type (human PD-1 ECD-Fc S57A) | KD mutant/KD wild-type (human PD-1 ECD-Fc S71A) | KD mutant/KD wild-type (human PD-1 ECD-Fc K135A) | other results |
| --- | --- | --- | --- | --- | --- | --- | --- | --- | --- | --- | --- | --- | --- | --- | --- | --- | --- | --- | --- | --- | --- |
| B1 | 1 ratio | 1 ratio | 1 ratio | 1 ratio | 1 ratio | 0.9 ratio | 1 ratio | 1 ratio | 0.9 ratio | 0.9 ratio | 1.1 ratio | 0.9 ratio | 1 ratio | 0.6 ratio | 0.9 ratio | 1 ratio | 1 ratio | 1.1 ratio | 0.9 ratio | 1.2 ratio | KD mutant/KD wild-type (human PD-1 ECD-Fc K131A): 0.9 ratio; KD mutant/KD wild-type (human PD-1 ECD-Fc F56A): 0.8 ratio; KD mutant/KD wild-type (human PD-1 ECD-Fc A80G): 1 ratio; KD mutant/KD wild-type (human PD-1 ECD-Fc G22A): 1 ratio; KD mutant/KD wild-type (human PD-1 ECD-Fc S159A): 0.9 ratio; KD mutant/KD wild-type (human PD-1 ECD-Fc E61A): 1 ratio; KD mutant/KD wild-type (human PD-1 ECD-Fc V44A): 9.9 ratio; KD mutant/KD wild-type (human PD-1 ECD-Fc S73A): 0.9 ratio; KD mutant/KD wild-type (human PD-1 ECD-Fc P158A): 1 ratio; KD mutant/KD wild-type (human PD-1 ECD-Fc Q88A): 0.9 ratio; KD mutant/KD wild-type (human PD-1 ECD-Fc P156A): 1.5 ratio; KD mutant/KD wild-type (human PD-1 ECD-Fc G124A): 1 ratio |
| B2 | 1.4 ratio | 1 ratio | 0.9 ratio | 0.9 ratio | 0.8 ratio | 0.9 ratio | 0.7 ratio | 1 ratio | 1.4 ratio | 1 ratio | 1 ratio | 0.5 ratio | 0.4 ratio | 0.5 ratio | 2.1 ratio | 1 ratio | 1.3 ratio | 1 ratio | 0.9 ratio | 1.1 ratio | binding result (human PD-1 ECD-Fc K131A): no binding (tested: 1 nM to 50 nM); KD mutant/KD wild-type (human PD-1 ECD-Fc F56A): 0.5 ratio; KD mutant/KD wild-type (human PD-1 ECD-Fc A80G): 0.4 ratio; KD mutant/KD wild-type (human PD-1 ECD-Fc G22A): 0.9 ratio; KD mutant/KD wild-type (human PD-1 ECD-Fc S159A): 0.8 ratio; KD mutant/KD wild-type (human PD-1 ECD-Fc E61A): 1.1 ratio; KD mutant/KD wild-type (human PD-1 ECD-Fc V44A): 0.8 ratio; KD mutant/KD wild-type (human PD-1 ECD-Fc S73A): 0.5 ratio; KD mutant/KD wild-type (human PD-1 ECD-Fc P158A): 0.9 ratio; KD mutant/KD wild-type (human PD-1 ECD-Fc Q88A): 1.4 ratio; KD mutant/KD wild-type (human PD-1 ECD-Fc P156A): 1.1 ratio; KD mutant/KD wild-type (human PD-1 ECD-Fc G124A): 4 ratio |
| B3 | 53.4 ratio | 0.8 ratio | 1 ratio | 1.6 ratio | 1 ratio | 1.1 ratio | 1.1 ratio | 1.3 ratio | 0.7 ratio | 1.1 ratio | 1.1 ratio | 1 ratio | 1 ratio | 1.6 ratio | 17.1 ratio | 0.8 ratio | 35.7 ratio | 1.2 ratio | 0.9 ratio | 4.2 ratio | binding result (human PD-1 ECD-Fc K131A): no binding (tested: 1 nM to 50 nM); KD mutant/KD wild-type (human PD-1 ECD-Fc F56A): 1.5 ratio; KD mutant/KD wild-type (human PD-1 ECD-Fc A80G): 1.2 ratio; KD mutant/KD wild-type (human PD-1 ECD-Fc G22A): 1 ratio; KD mutant/KD wild-type (human PD-1 ECD-Fc S159A): 1.1 ratio; KD mutant/KD wild-type (human PD-1 ECD-Fc E61A): 1.2 ratio; KD mutant/KD wild-type (human PD-1 ECD-Fc V44A): 1.4 ratio; KD mutant/KD wild-type (human PD-1 ECD-Fc S73A): 0.9 ratio; KD mutant/KD wild-type (human PD-1 ECD-Fc P158A): 1.2 ratio; KD mutant/KD wild-type (human PD-1 ECD-Fc Q88A): 1.4 ratio; KD mutant/KD wild-type (human PD-1 ECD-Fc P156A): 1 ratio; KD mutant/KD wild-type (human PD-1 ECD-Fc G124A): 0.5 ratio |
